This passage reports Kd, koff and kon results from PMC1888804 (Nucleic Acids Research, 2007).

Read-outs that look alike come from different tables or passages of the source.

What all share (experiment): SPR
Background: Surface plasmon resonance follows binding to a sensor surface in real time, without labels.

Assay [1] deals with α subunit of Escherichia coli DNA polymerase III holoenzyme (E. coli) (UniProt P10443).
Assay [2] addresses T1, α subunit of Escherichia coli DNA polymerase III holoenzyme (E. coli, UniProt P10443 1-1160).
Assay [3] addresses T1, α subunit of Escherichia coli DNA …. The source holds these as a separate data set.
The target is the same in assay [4]. The source holds these as a separate data set.

T1 sequence (P10443 whole entry): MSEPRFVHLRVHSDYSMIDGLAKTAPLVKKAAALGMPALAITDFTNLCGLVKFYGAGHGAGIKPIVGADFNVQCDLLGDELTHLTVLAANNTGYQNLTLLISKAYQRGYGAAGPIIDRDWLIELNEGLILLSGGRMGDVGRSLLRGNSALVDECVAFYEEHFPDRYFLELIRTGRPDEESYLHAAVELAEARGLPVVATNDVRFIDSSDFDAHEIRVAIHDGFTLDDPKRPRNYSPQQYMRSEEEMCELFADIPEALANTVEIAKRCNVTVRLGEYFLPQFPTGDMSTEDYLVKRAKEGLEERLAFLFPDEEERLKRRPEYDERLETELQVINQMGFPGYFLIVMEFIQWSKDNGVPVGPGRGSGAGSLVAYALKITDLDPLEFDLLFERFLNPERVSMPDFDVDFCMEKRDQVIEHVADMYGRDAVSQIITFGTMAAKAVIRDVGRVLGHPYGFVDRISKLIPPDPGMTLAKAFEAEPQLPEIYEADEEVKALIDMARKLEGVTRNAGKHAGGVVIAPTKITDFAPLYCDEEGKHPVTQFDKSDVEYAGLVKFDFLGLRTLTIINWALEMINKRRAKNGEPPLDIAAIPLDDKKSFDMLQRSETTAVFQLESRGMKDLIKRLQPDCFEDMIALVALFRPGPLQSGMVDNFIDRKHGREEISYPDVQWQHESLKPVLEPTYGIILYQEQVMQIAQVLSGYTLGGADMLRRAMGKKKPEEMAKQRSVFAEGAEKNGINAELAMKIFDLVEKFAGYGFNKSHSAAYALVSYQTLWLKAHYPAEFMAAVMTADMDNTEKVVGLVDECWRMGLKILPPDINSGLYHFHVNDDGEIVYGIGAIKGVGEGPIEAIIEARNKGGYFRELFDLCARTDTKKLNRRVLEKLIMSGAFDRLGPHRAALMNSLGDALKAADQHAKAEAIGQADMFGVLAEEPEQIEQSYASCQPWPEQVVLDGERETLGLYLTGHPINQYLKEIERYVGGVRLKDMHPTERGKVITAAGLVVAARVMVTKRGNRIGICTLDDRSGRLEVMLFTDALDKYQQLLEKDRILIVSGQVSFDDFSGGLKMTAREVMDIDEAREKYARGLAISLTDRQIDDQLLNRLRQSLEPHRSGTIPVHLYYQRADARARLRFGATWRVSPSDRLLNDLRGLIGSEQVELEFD
Sequence of α subunit of Escherichia coli DNA polymerase III holoenzyme (E. coli) (P10443 whole entry): as above

In assay [1], “τC16Δ7 (τC16 with a C-terminal deletion of seven residues) (from UniProt P06710 499-636) (domain or fragment)” returned a Kd of 6700 nM.

B1: τC14 (folded core of Domain V of τ, residues 499–625) (domain or fragment, E. coli)
chain: MKALEHEKTPELAAKLAAEAIERDPWAAQVSQLSLPKLVEQVALNAWKEESDNAVCLHLRSSQRHLNNRGAQQKLAEALSMLKGSTVELTIVEDDNPAVRTPLEWRQAIYEEKLAQARESIIADNNIQ
In assay [2], B1 gave a Kd greater than 10000 nM.

B2: bio-τC14 (biotinylated τC14) (domain or fragment, E. coli)
chain: MKALEHEKTPELAAKLAAEAIERDPWAAQVSQLSLPKLVEQVALNAWKEESDNAVCLHLRSSQRHLNNRGAQQKLAEALSMLKGSTVELTIVEDDNPAVRTPLEWRQAIYEEKLAQARESIIADNNIQ
modifications: biotinylated on the N-terminal biotin-tag
For the molecule B2, the Kd in assay [3] was greater than 1000 nM.

B3: τC16Δ11 (τC16 with a C-terminal deletion of 11 residues) (domain or fragment, E. coli)
chain: MKALEHEKTPELAAKLAAEAIERDPWAAQVSQLSLPKLVEQVALNAWKEESDNAVCLHLRSSQRHLNNRGAQQKLAEALSMLKGSTVELTIVEDDNPAVRTPLEWRQAIYEEKLAQARESIIADNNIQTLRRFFD
In assay [2], B3 had a Kd greater than 10000 nM.

B4: τC16 (Domain V of the τ subunit of E. coli DNA polymerase III holoenzyme, residues 499–643) (domain or fragment)
chain: MKALEHEKTPELAAKLAAEAIERDPWAAQVSQLSLPKLVEQVALNAWKEESDNAVCLHLRSSQRHLNNRGAQQKLAEALSMLKGSTVELTIVEDDNPAVRTPLEWRQAIYEEKLAQARESIIADNNIQTLRRFFDAELDEESIRPI
B4 had a Kd in assay [2] of 0.13 nM. This counts as sub-nanomolar.

B5: bio-τC16 (N-terminally biotinylated τC16) (domain or fragment, E. coli)
chain: MKALEHEKTPELAAKLAAEAIERDPWAAQVSQLSLPKLVEQVALNAWKEESDNAVCLHLRSSQRHLNNRGAQQKLAEALSMLKGSTVELTIVEDDNPAVRTPLEWRQAIYEEKLAQARESIIADNNIQTLRRFFDAELDEESIRPI
modifications: biotinylated on the N-terminal biotin-tag
In assay [3], B5 showed a Kd of 0.265 nM, a koff of 0.000402 s⁻¹ and a kon of 1.52e+06 M⁻¹ s⁻¹. This molecule also showed a Kd in assay [4] of 0.264 nM.

B6: τC16[F631I] (domain or fragment, E. coli)
chain: MKALEHEKTPELAAKLAAEAIERDPWAAQVSQLSLPKLVEQVALNAWKEESDNAVCLHLRSSQRHLNNRGAQQKLAEALSMLKGSTVELTIVEDDNPAVRTPLEWRQAIYEEKLAQARESIIADNNIQTLRRFIDAELDEESIRPI
In assay [2], B6 yielded a Kd of 99 nM.

B7: τC16[I618T] (domain or fragment, E. coli)
chain: MKALEHEKTPELAAKLAAEAIERDPWAAQVSQLSLPKLVEQVALNAWKEESDNAVCLHLRSSQRHLNNRGAQQKLAEALSMLKGSTVELTIVEDDNPAVRTPLEWRQAIYEEKLAQARESTIADNNIQTLRRFFDAELDEESIRPI
In turn, B7 displayed a Kd in assay [2] of 0.98 nM.

B8: τC16[L635P] (domain or fragment, E. coli)
chain: MKALEHEKTPELAAKLAAEAIERDPWAAQVSQLSLPKLVEQVALNAWKEESDNAVCLHLRSSQRHLNNRGAQQKLAEALSMLKGSTVELTIVEDDNPAVRTPLEWRQAIYEEKLAQARESIIADNNIQTLRRFFDAEPDEESIRPI
In turn, B8 returned a Kd in assay [2] of 2.4 nM.

B9: τC16[S617P] (domain or fragment, E. coli)
chain: MKALEHEKTPELAAKLAAEAIERDPWAAQVSQLSLPKLVEQVALNAWKEESDNAVCLHLRSSQRHLNNRGAQQKLAEALSMLKGSTVELTIVEDDNPAVRTPLEWRQAIYEEKLAQAREPIIADNNIQTLRRFFDAELDEESIRPI
The molecule B9 gave a Kd in assay [2] of 160 nM.

B10: τC16[L627P] (domain or fragment, E. coli)
chain: MKALEHEKTPELAAKLAAEAIERDPWAAQVSQLSLPKLVEQVALNAWKEESDNAVCLHLRSSQRHLNNRGAQQKLAEALSMLKGSTVELTIVEDDNPAVRTPLEWRQAIYEEKLAQARESIIADNNIQTPRRFFDAELDEESIRPI
B10 registered a Kd in assay [2] of 1500 nM.

B11: τC16[D636G] (domain or fragment, E. coli)
chain: MKALEHEKTPELAAKLAAEAIERDPWAAQVSQLSLPKLVEQVALNAWKEESDNAVCLHLRSSQRHLNNRGAQQKLAEALSMLKGSTVELTIVEDDNPAVRTPLEWRQAIYEEKLAQARESIIADNNIQTLRRFFDAELGEESIRPI
B11 yielded a Kd in assay [2] of 3.8 nM. In the case of AQARESIIADNNIQTLRRFFDAELDEESIRPI (peptide, UniProt P06710 612-643, looked up) [τCpep32 (synthetic 32-mer peptide of the C-terminus of τ)], in assay [2], the Kd stood at 3800 nM. Compared with the last molecule, the Kd is about 1000-fold higher.

Broadly, the Kd is a measure of binding affinity in units of concentration. A lower Kd goes with tighter binding. As usually defined, the koff is a measure of how fast the partners let go of each other. The kon is the rate constant with which the complex forms. The low end stands for slow association, the high end for fast association.
